We go through two substances from PMC5674899.

The target of assay [1] is GFP-tagged WT NuMA-tail II (aa 1868–2091) (human) (UniProt Q14980). Briefly: TIRF microscopy of GFP-tagged protein on immobilised microtubules.
Assay [2] addresses NuMA-tail (1970–2091)—GFP (human) (UniProt Q14980). Described as above.
Assay [3] addresses GFP-tagged WT NuMA-tail II (aa 1868–2091) (human) (UniProt Q14980). Nature of the assay: ITC. (Isothermal titration calorimetry measures the heat released or taken up as one component is titrated into another.)

Take “1:1 stoichiometric mixture of full-length Importin-α and Importin-β (from UniProt P52292 1-529; Q14974 1-876) (complex)”: the fold reduction of the GFP signal of m1 on microtubules in assay [1] was 50 fold. Besides, in assay [2], the fold reduction of the microtubule binding of m17 came out at 80 fold. The Kd (in general, the constant that tells how readily two partners part at equilibrium) in assay [3] is 2200 nM.

For “Importin-α lacking the Importin-β binding (IBB) domain (aa 70–524), mouse (from UniProt P52293 70-524) (domain or fragment)”, the Kd in assay [3] was determined as 250 nM.
